# According to patent publication US20190119357A1, “MESSENGER RIBONUCLEIC ACIDS FOR THE PRODUCTION OF INTRACELLULAR BINDING POLYPEPTIDES AND METHODS OF USE THEREOF” (ModernaTX, Inc., priority 2015, published 2019):
# Entries after “also recorded” stand apart in the source; their conditions may differ.
# B1: SQT-PUMA-BH3: mRNA (SEQ ID NO: 49, FLAG) encoding SQT scaffold with PUMA BH3 domain in N-terminus, fully modified with 1-methyl-pseudouridine (nucleic acid)
# chain: ATGATCCCAAGAGAAGAACAGTGGGCACGCGAAATTGGAGCTCAACTCAGACGGATGGCCGACGACCTGAACGCCCAGTACGAGCGGCGGGGACTCTCAGAAGCGAAGCCTGCCACCCCCGAAATCCAGGAAATCGTCGACAAGGTCAAGCCGCAGCTTGAGGAAAAGACCAACGAGACTTACGGAAAACTGGAGGCCGTGCAGTATAAGACCCAAGTGTTGGCCTCCACCAACTACTACATTAAGGTCCGCGCCGGCGATAACAAGTACATGCACCTGAAGGTGTTCAATGGTCCTCCGGGACAGAACGCGGACAGGGTGCTGACTGGCTACCAAGTGGACAAGAACAAGGACGACGAGCTGACGGGCTTCGACTACAAGGATGATGATGACAAA
# modifications: FLAG tag, 1-methyl-pseudouridine; Synthetic SQT-PUMA-BH3 mRNA sequence with FLAG epitope tag
# Legend:
# Hep3b xenografts = assay: Efficacy in SCID mice bearing subcutaneous Hep3B xenografts; format: in vivo; conditions: SC Hep3B, 2mpk or 3mpk weekly (Day 1 and Day 8), mmRNA with miR-122 binding site in MC3 LNPs (1.5% DSPE)
# Method: LNPs comprising the cationic lipid MC3 were tested using the optimal molar percentage of PEG-lipid and optimal PEG length (1.5% DSPE, C18, as described in Example 10), for in vivo targeted delivery of SQT-PUMA-BH3.
# SCID mice were dosed weekly (Day 1 and Day 8) over a two week period with mmRNA encoding SQT-PUMA-BH3 (comprising a miR-122 binding site), as described above.
# HeLa cells = assay: PARP-1 cleavage by SDS-PAGE and Western blotting after transfection of mRNAs encoding SQT-BH3 constructs; format: cell-based; conditions: from anti-FLAG and anti-GFP Western blotting
# Description: The cleavage of PARP-1 was detected by the appearance of a faster-migrating band and concomitant loss of the full-length band by SDS-PAGE and Western blotting. Western blotting with anti-actin antibodies served as a loading control.
# Hep3B cells [1] = assay: SQT-BH3 in combination with siMCL1 or sorafenib, YOYO-3; format: cell-based; conditions: 10 uM sorafenib tosylate, 24 hours after treatment
# primary hepatocytes = conditions: 10uM sorafenib tosylate, 24 hours after treatment
# Method: Controls were an empty SQT construct (“SQT-dummy”), a non-targeting siRNA and PBS. For treatment of Hep3B cells, 20,000 Hep3B cells/well per plated in 96-well plates. At Day 1, some wells were transfected with siMCL1 (Dharmacon, ON-TARGETplus Human MCL1 (4170) siRNA-SMARTpool, # L-004501-00-0005) or non-targeting siRNA (ON-TARGETplus Non-targeting Control Pool, # D-001810-10-05). […] 24 hours after treatment, YOYO®-3 iodide (Life Technologies) viability dye was added to each well and cell death was measured on an IncuCyte ZOOM® using YOYO-3 fluorescence as a readout (=“Apoptosis”). For treatment of primary hepatocytes, 18,000 mouse hepatocytes (Gibco) were seeded in each well of a 96-well plate. At Day 1, some wells were transfected with siMCL1 (Dharmacon, SMARTpool: ON-TARGETplus Mc11 siRNA, # L-062229-00-0005) or non-targeting siRNA (ON-TARGETplus Non-targeting Control Pool, # D-001810-10-05). […] 24 hours after treatment, Caspase 3/7 reagent (EssenBio) apoptosis dye was added to each well and cell death was measured on an IncuCyte ZOOM® using the caspase 3/7 reagent fluorescence as a readout (=“Apoptosis”).
# systemic HEL xenografts = assay: Systemic HEL xenografts in SCID mice (AML model); format: in vivo
# Method: LNPs comprising the cationic lipid MC3 were tested using the optimal percentage of PEG-lipid and optimal PEG length (1.5% DSPE, C18, as described in Example 8), for in vivo targeted delivery of SQT-PUMA-BH3 in two different in vivo models of acute myeloid leukemia (AML). One model used systemic TF1a xenografts in SCID mice. The other model used systemic HEL xenografts in SCID mice. Each of these models uses a human erythroleukemia cell line. The HEL erythroleukia cell line is described in, for example, Martin, P. and Papayannopoulou, T. (1982) Science 216:1233-1235. The TF1 erythroleukmia cell line (from which TF1a is derived) is described in, for example, Kitamura, T. et al. (1989) J. Cell. Physiol. 140:323-334. Unless otherwise noted, mRNAs were fully modified with N1-methlypseudouridine to avoid stimulating an innate immune response to said mRNAs when administered in vivo.
# In a second set of experiments, HEL cells stably expressing luciferase (HEL-luc cells) were implanted systemically in SCID mice. Tumor growth was measured by whole body bioluminescent imaging (BLI) in anaesthetized animals following SC injection of 150 mg/kg D-Luciferin, in an imaging chamber (Spectrum CT). […] Mice were dosed intravenously at days 28 and 36 and tumor burden was assessed by BLI on days 33, 36, 40 and 43.
# Hep3B cells [2] = assay: Sorafenib combination, YOYO-3 apoptosis on IncuCyte ZOOM; format: cell-based
# Method: To determine the effect of SQT-BH3 constructs in combination with the protein tyrosine kinase inhibitor Sorafenib on liver cells, 20,000 Hep3B cells/well in a 96 well plate were treated with increasing amounts of sorafenib tosylate (Selleck Chemicals) and transfected with LNPs containing SQT-PUMA-BH3 (68 pM) or SQT-Bad-BH3 (550pM).
# MCL-1 = target: T1, MCL-1 (Homo sapiens, UniProt Q07820); assay: Co-immunoprecipitation in lysates of transfected HeLa cells; format: binding; conditions: lysates of HeLa cells transfected with mRNAs
# T1 construct: performed in lysates of HeLa cells transfected with mRNAs encoding SQT-BH3 constructs; endogenous in cells; host or cells: HeLa
# systemic TF1a tumors = assay: Repeat study in the TF1a-SCID model with survival endpoint; format: in vivo
# Method: In this repeat study, tumor growth inhibition (TGI) was the primary efficacy over the first 4 weeks of the study and survival was the primary efficacy endpoint over the second 4 weeks of the study. […] Animals were dosed as follows: PBS (0.1 ml/20 g one time per week) IV (Group 1), cytarabine IV at 2 mg/kg three times per week (Group 2), LNPs containing mRNA encoding Green Fluorescent Protein (GFP) at 3 mg/kg one time per week (Group 3) and LNPs containing mRNA encoding SQT-PUMA-BH3 (comprising a miR122 binding site) at 3 mg/kg one time per week (Group 4).
# Mice were dosed intravenously for four weeks, with animals in Group 4 being dosed for eight weeks (i.e., weekly dosing up to eight weeks).
# In this repeat study, tumor growth inhibition (TGI) was again used as a primary endpoint to quantify efficacy with BLI being used as a surrogate for tumor burden. Bioluminescence Imaging (BLI) was measured weekly out to at least Day 61 post disease induction. The mean BLI results at Day 33 and Day 61 are shown in FIGS. 23A and 23B, respectively.
# The survival of the mice over eight weeks was monitored and the percent survival of the mice in the study was assessed.
# [3] = test system: primary mouse hepatocytes; assay: Sorafenib combination in primary mouse hepatocytes; format: cell-based; conditions: SQT-PUMA-BH3 205 pM or 1100 pM, SQT-Bad-BH3 549 pM or 1100 pM, sorafenib 0-10 uM
# Method: Similar combination experiments were performed with primary mouse hepatocytes, treated with SQT-PUMA-BH3 (205 pM or 1100 pM) or SQT-Bad-BH3 (549 pM or 1100 pM) in combination with sorafenib (0-10 μM). […] Thus, normal primary liver cells are spared by the combination treatment, indicating the combination treatment can selectively kill liver cancer cells over normal liver cells.
# T1 sequence (Q07820 whole entry): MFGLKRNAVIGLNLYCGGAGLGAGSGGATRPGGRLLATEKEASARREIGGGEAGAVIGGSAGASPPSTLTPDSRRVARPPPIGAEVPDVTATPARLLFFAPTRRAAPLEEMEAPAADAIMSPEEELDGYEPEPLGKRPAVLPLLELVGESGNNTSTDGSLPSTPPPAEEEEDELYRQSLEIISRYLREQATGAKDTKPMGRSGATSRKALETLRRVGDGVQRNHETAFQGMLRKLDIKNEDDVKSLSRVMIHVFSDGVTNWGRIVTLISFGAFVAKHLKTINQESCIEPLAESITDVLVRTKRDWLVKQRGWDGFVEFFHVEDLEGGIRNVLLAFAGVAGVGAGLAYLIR
molecule,measurement,setting,value
B1,tumor growth inhibition (TGI),Hep3b xenografts,significantly greater TGI than the mice treated with PBS alone
same,cell death of transfected cells,HeLa cells,underwent cell death
same,apoptosis (YOYO-3) in combination with either siMCL1 or sorafenib,Hep3B cells [1],led to a marked increase in apoptosis as compared to treatment with the SQT-BH3 construct in combination with non-targeting siRNA or PBS; also recorded: synergistic pro-apoptotic effect
same,"apoptosis (caspase 3/7) in combination with siMCL1, sorafenib or controls",primary hepatocytes,did not lead to increased apoptosis as compared to treatment with the control SQT-dummy construct
same,"tumor growth inhibition (TGI), BLI","systemic HEL xenografts; 1.5 mg/kg IV at days 28 and 36, by days 40 and 43",exhibited greater tumor growth inhibition (TGI) as compared to the mice treated with the PBS or GFP controls
same,"tumor growth inhibition (TGI), BLI","systemic HEL xenografts; 3 mg/kg IV at days 28 and 36, at day 33",already exhibited significantly greater tumor growth inhibition than the mice treated with the PBS or GFP controls
same,nature of combination effect with sorafenib,Hep3B cells [2]; SQT-PUMA-BH3 68 pM or SQT-Bad-BH3 550pM,synergistic effect
same,"apoptosis (YOYO-3), combination with sorafenib vs sorafenib alone","Hep3B cells [2]; SQT-PUMA-BH3 68 pM or SQT-Bad-BH3 550pM in LNPs, increasing sorafenib tosylate",increased apoptosis of the liver cells as compared to treatment with sorafenib alone
same,co-immunoprecipitation of MCL-1,MCL-1,able to co-immunoprecipitate
same,percent body weight change / tolerability,systemic TF1a tumors,did not significantly impact body weight
same,tumor growth (BLI),"systemic TF1a tumors; 3 mg/kg one time per week, 3 mg/kg","showed marked tumor growth regression as compared to both PBS and LNP controls; also recorded: most effective treatment for inhibiting tumor growth, showing greater efficacy than the cytarabine SOC control"
same,median survival,"systemic TF1a tumors; post-implant, 3 mg/kg one time per week",median survival had not yet been reached
same,apoptosis in combination with sorafenib,[3],"neither SQT-BH3 construct, in combination with sorafenib, caused apoptosis"
